# In patent US20100068806A1, “NOVEL METHODS AND REAGENTS DIRECTED TO PRODUCTION OF CELLS” (SUOMEN PUNAINEN RISTI, VERIPALVELU, priority 2007, published 2010):
# Entries after “also recorded” stand apart in the source; their conditions may differ.
# B1: Galectin-1: bovine Galectin-1, N-acetyllactosamine binding lectin (protein, UniProt P11116 2-135, looked up)
# Galectin-1: ACGLVASNLNLKPGECLRVRGEVAADAKSFLLNLGKDDNNLCLHFNPRFNAHGDVNTIVCNSKDAGAWGAEQRESAFPFQPGSVVEVCISFNQTDLTIKLPDGYEFKFPNRLNLEAINYLSAGGDFKIKCVAFE
# B2: PNA: peanut lectin, Gal/GalNAc structures (protein, UniProt P02872 24-273, looked up)
# Galactose-binding lectin: AETVSFNFNSFSEGNPAINFQGDVTVLSNGNIQLTNLNKVNSVGRVLYAMPVRIWSSATGNVASFLTSFSFEMKDIKDYDPADGIIFFIAPEDTQIPAGSIGGGTLGVSDTKGAGHFVGVEFDTYSNSEYNDPPTDHVGIDVNSVDSVKTVPWNSVSGAVVKVTVIYDSSTKTLSVAVTNDNGDITTIAQVVDLKAKLPERVKFGFSASGSLGGRQIHLIRSWSFTSTLITTTRRSIDNNEKKIMNMASA
# Experiments:
# [1] = system: SSEA-4 enriched human embryonic stem cells (hESC); details: Venable et al. 2005; cited from earlier work
# [2] = system: hESC; experiment: Fluorescein-labelled lectin staining of hESC colonies on mouse feeder layers; type: binding, human; parameters: key to lectin ligand profile, hESC: + present in cell surface; − not present in cell surface; details: for inhibition of lectin binding to hESC by carbohydrate: MAA or PSA binding
# Method: (§1) Lectin staining. Fluorescein-labeled lectins were from EY Laboratories (USA) and the stainings were performed essentially after manufacturer's instructions. The specificity of the staining was controlled in parallel experiments by inhibiting lectin binding with specific oligo- and monosaccharides.
# (§2) From a practical perspective stem cell research would be best served by the identification of target structures on cell surface. To investigate whether individual glycan structures we had identified would be accessible to reagents targeting them at the cell surface we performed lectin labelling of two candidate structure types. Lectins are proteins that recognize glycans with specificity to certain glycan structures also in hESC (Venable et al., 2005). To study the localization of glycan components in hESC, stem cell colonies grown on mouse feeder cell layers were labeled in vitro by fluorescein-labelled lectins (FIG. 2). […] Such glycans would thus be available for recognition by more specific glycan-recognizing reagents such as antibodies. In contrast, the cell surfaces were not labelled by Pisum sativum agglutinin (PSA) that recognizes α-mannosylated glycans (FIG. 2b).
# The glycome profile data was used to design glycan-specific labeling reagents for hESC. The most interesting glycan types were chosen to study their expression profiles by lectin histochemistry as exemplified in FIG. 5 for the lectins that recognize either α2,3-sialylated (MAA-lectin, FIG. 5A.) binding to the hESC cells or α-mannosylated glycans (PSA-lectin, FIG. 5B.) binding to the surfaces of feeder cells (MEF). The binding of the lectin reagents was inhibited by specific carbohydrate inhibitors, sialylα2-lactose and mannose, respectively (FIG. 5C. and 5D.).
# [3] = system: hESC lines FES29 and FES30; experiment: hESC culture on lectin-coated plates in mEF-conditioned media; type: cell-based, human; parameters: key to Growth: +++: cells attach and can grow; cells attach and can grow but less cells/slower growth than +++; +: only few cells attach, one split; −: no cells after p1, cannot be splitted; #: less cells attach and slower early growth; details: for Growth: culture experiment in mEF-conditioned media; for growth of hESC on coated plates: mEF-conditioned media
# Description: FES 30 hESC line was used. hESCs were transferred from mEF to Matrigel™ and cultured according to the protocol found on the Geron Corporation website at: http://www.geron.com/showpage.asp?code=prodstprot
# All passages were done using collagenase. The passages were also done using PBS without collagenase treatment.
# The cells were transferred to ECA-coated 12-well plates (Corning) and cultured in mEF-conditioned media for 5-11 days, whereafter they were divided 1:2 or 3:4. RNA samples were extracted from a cell sample every second or third passage and analyzed for expression of stem cell and differentiation markers (FIG. 31).
# The ECA (EY Laboratories, USA; L-5901-5) coating was performed as follows for 12 well plates. ECA lectin was stored frozen as stock solution of 1 mg/ml. It was thawed on ice and diluted as 100 μl lectin stock+600 μl PBS, sterile filtered (Millex-GV, SLGV 013 SL, 0.22 μm) in laminar hood. This solution, i.e. 100 μg/700 μl PBS solution was applied to each well and incubated overnight at +4 C. On the following day lectin solution was removed and wells were washed with 3×1 ml of sterile PBS.
# (§3) hESC were cultured at least two passages feeder-free on Matrigel (BD Biosciences, Bedford, Mass., USA) before plating on lectin. Matrigel-culturing was continued side by side lectin-culturing as comparison. Cells were cultured during the whole experiment in standard Knockout™ DMEM media with 20% Knockout™ Serum Replacement and 8 ng/ml of recombinant basicFGF (all from Gibco/Invitrogen, Paisley, UK; Mikkola M. et al. BMC Dev. Biol. 6:40, 2006) conditioned on mouse feeder cells for 24 h. Cells were detached with collagenase IV while splitting.
# (§4) Lectins were diluted in PBS and sterile filtered before applying on Nunclon cell culture plates (Nunc, Roskilde, Denmark). The amount of lectin was 27 μg/cm^2 and plates were incubated over night at +4° C. Before splitting cells on lectin wells were washed three times with PBS.
# [4] = system: hESC; experiment: Short (5 days) hESC culture on ECA types and conjugates; type: cell-based, human; parameters: key: +++: many cells attached on day 5; ++: scattered cells on day 5; +: few cells left on day 5; −: no attached cells after day 5; details: day 5
# [5] = system: Human Bone marrow-derived mesenchymal stem cells (MSC); experiment: Flow cytometry of CD105, CD45, CD73, HLA-DR in MSC grown on lectins; type: cell-based; details: MSC grown on lectin
# Method: Briefly, bone marrow obtained during orthopedic surgery was cultured in Minimum Essential Alpha-Medium (α-MEM), supplemented with 20 mM HEPES, 10% FCS, 1× penicillin-streptomycin and 2 mM L-glutamine (all from Gibco). After a cell attachment period of 2 days the cells were washed with Ca2+ and Mg2+ free PBS (Gibco), and subcultured at a density of 2000-3000 cells/cm2 in the same media on 24-well chamber slides coated with lectin molecules. Cells were crown at 37° C. with 5% CO2, fresh media was changed twice a week until near confluence. MSCs were cultured on lectin coated well plates for five passages. MSC passages 5-10 were used in the experiment.
# Proliferating MSCs in passage 5 were grown on different lectins for 5 days. Cells were washed with PBS and harvested into single cell suspensions by Versene solution. Detached cells were centrifuged at 600×g for five minutes at room temperature. Cell pellet was washed twice with 0.3% BSA-PBS, centrifuged at 600×g and resuspended in 0.3% BSA-PBS. Cells were placed in conical tubes in aliquots of 50 000 cells each. Cell aliquots were incubated with antibodies in dilution of 2 μl/10^5 cells for 30 minutes at +4° C. in the dark. After incubation cells were washed with 0.3% BSA-PBS, centrifuged and resuspended in 0.3% BSA-PBS.
# Unlabeled cells and cells grown on plastic were used as controls. Antibody binding was detected by flow cytometry (FACSAria, Becton Dickinson). Data analysis was made with FACSDiva™ Flow Cytometry Software Version 5.02.
# [6] = system: FABP4; experiment: Quantitative RT-PCR of FABP4 in MSC grown on lectins; type: cell-based, human
# Description: (§5) Total cellular RNA from the BM derived mesenchymal stem cells grown for five passages on selected lectins was extracted by using RNeasy miniprep-kit (Qiagen, Chatsworth, Calif.) according to the manufacturers's instructions. RNA was then reverse transcribed to cDNA with High Capacity cDNA Reverse Transcription reagents according to manufacturers instructions (Applied Biosystems) and used as a template in TaqMan® PCR reaction. TaqMan® PCR reaction was used to estimate the quantitative levels of stem cell differentiation markers. TaqMan® PCR reaction performed in standard conditions using TaqMan® Universal Gene Expression Master Mix (Applied Biosystems) and Pre-developed Inventored Gene Expression Assays for FABP4 (Hs00609791_m1) and RUNX2 (Hs00231692_m1) (Applied Biosystems).
# (§6) Real time quantitative PCR reactions were performed with the ABI PRISM 7000 Sequence Detector System (Applied Biosystem) in standard conditions. PCR amplifications were performed in a total volume of 50 μl, containing 1 μl cDNA sample. TaqMan® Universal Gene Expression Master Mix (Applied Biosystems) was used in all experiments. Pre-developed Inventored Gene Expression Assays for FABP4 (Hs00609791_m1) and RUNX2 (Hs00231692_m1) (Applied Biosystems) were used to estimate the quantitative levels of stem cell differentiation markers. Pre-developed TaqMan® assay reagents for endogenous control human TATA-box binding gene labeled with VIC reporter dye (Hs 999999_m19) was used for amplification of control gene.
# (§7) PCR was started with 2 min at 50° C. and the initial 10 min denaturing temperature was 94° C., followed by a total of 40 cycles of 15 s of denaturing and 1 min of annealing and elongation at 60° C.
# [7] = system: hESC (FES29); experiment: FACS of Tra-1-60 and SSEA-3 in hESC cultured on lectins or Matrigel; type: cell-based, human
# Method: as §3, §4
# [8] = system: RUNX2; experiment: Quantitative RT-PCR of RUNX2 in MSC grown on lectins; type: cell-based, human
# Description: as §5, §6, §7
# [9] = system: mouse feeder cell (mEF); experiment: FITC-lectin and antibody labelling of mouse feeder cells, fluorescence microscopy; type: binding; details: fixed cells
# [10] = system: human embryonic stem cell (hESC) lines FES 22 and FES 30; experiment: FITC-lectin and antibody labelling of hESC, fluorescence microscopy; type: binding
# [11] = system: cord blood mononuclear cell (CB MNC); experiment: FACS analysis of FITC-lectin binding to cord blood mononuclear cells; parameters: species or system human; details: seven CB MNC preparations
# [12] = system: mouse feeder cells (MEF); experiment: Fluorescein-labelled lectin staining of mouse feeder cells in hESC culture; type: binding; parameters: key: + present in cell surface; − not present in cell surface; details: MEF cell surface
# Method: as §1, §2
# The glycome profile data was used to design glycan-specific labeling reagents for hESC. […]
# [13] = system: bone marrow derived mesenchymal stem cells (BM MSC); experiment: FITC-lectin staining of fixed BM MSC, fluorescence microscopy; type: binding, human
# [14] = MSC grown five passages on lectin
# [15] = start point (UEA-1/DSA/Galectin 1 experiment)
molecule,measurement,setting,value
PHA-L: Phaseolus vulgaris lectin,lectin binding to SSEA-4 enriched hESC,[1],partially bind to hESC
CC(=O)N[C@H]1[C@H]([C@H](O)[C@H](O)CO)O[C@@](O[C@H]2[C@@H](O)[C@@H](CO)O[C@@H](O[C@H]3[C@H](O)[C@@H](O)C(O)O[C@@H]3CO)[C@@H]2O)(C(=O)O)C[C@@H]1O (some centres unmarked) [3′-sialyllactose],inhibition of lectin binding to hESC by carbohydrate,[2],blocks MAA binding
same,inhibition of lectin binding to hESC by carbohydrate,[2]; listed as α3′-sialyllactose,inhibited
PHA-E: Phaseolus vulgaris lectin recognizing N-glycan core epitope (bisecting GlcNAc),lectin binding to SSEA-4 enriched hESC,[1],partially bind to hESC
same,Growth,[3],+++#
same,growth of hESC on coated plates,[3],weak
"rGal-1: rGal-1, presumably recombinant galectin-1, coating in short hESC culture",short (5 days) culting,[4],−
"Galectin-1 in solution: Galectin-1 added in solution, not immobilized",Growth,[3],−
same,growth of hESC on coated plates,[3],could not support the cell growth
O=C[C@@H](O)[C@@H](O)[C@H](O)[C@H](O)CO [D-mannose],inhibition of lectin binding to hESC by carbohydrate,[2],inhibited; also recorded: blocks PSA binding
B1,CD 45,[5],neg
same,CD73,[5],pos
same,CD105,[5],pos
same,HLA-DR,[5],23.8%
same,Expression relative to plastic 2e − ΔΔCt,[6]; FABP,12.85
same,ΔCt − Δctplastic relative ΔΔCt,"[6]; FABP, relative to plastic",−1.86
same,FABP - Endogenous control gene avarage Δct,[6]; [14],5.24
same,expression of SSEA-3,"[7]; FES29, after 7 passages",32.3%
same,expression of Tra-1-60,"[7]; FES29, after 7 passages",21.6%
same,SSEA-3,[7]; p7,32.3
same,Tra-1-60,[7]; p7,21.6
same,SSEA-3,[7]; [15],89.2
same,Tra-1-60,[7]; [15],69.6
same,RUNX- Endogenous control gene avarage Δct,[8]; [14],2.76
same,Expression relative to plastic 2e − ΔΔCt,[8]; RUNX,0.31
same,ΔCt − Δctplastic relative ΔΔCt,"[8]; RUNX, relative to plastic",1.87
same,passages hESC cultured on lectin,[3]; FES29,7 passages
same,Growth,[3],+++
same,growth of hESC on coated plates,[3],also effective
B2,labelling of mEF,[9],absence of specific binding
same,lectin binding to SSEA-4 enriched hESC,[1],high binding percentage
same,labelling of hESC,[10]; fixed cells on mouse feeder layer,Abundant labelling
same,"specific binding, hESC versus mEF",[10]; hESC compared with mEF,bound specifically to hESC but not to mEF
same,"lectin ligand profile, hESC",[2]; hESC cell surface,+
same,lectin binding to CB MNC,[11],variable binding between CB samples
same,"lectin ligand profile, MEF",[12],−
same,lectin binding / labelling of BM MSC,"[13]; FITC-labelled lectin, cell surface of cultured BM MSC",less intense labelling
same,effect of sialidase treatment of the cells on lectin binding,[13]; sialidase treatment before lectin binding,also increased by sialidase treatment
